Reference: patent US5795865A, “Kallikrein-inhibiting "kunitz domain" proteins and analogues thereof” (Dyax Corp., priority 1996, dated 1998)
Like-named read-outs stand apart in the source and are kept apart here.

Key:
plasma kallikrein (pKA) = plasma kallikrein (pKA) (Homo sapiens, UniProt P03952); experiment: Inhibition of human plasma kallikrein (measured Ki taken as KD), yeast-expressed purified proteins; assay type: biochemical; design: Hydrolysis of the Arg371 -Ile372 peptide bond yields a two-chain proteinase joined by a disulfide bond; conditions: for Ki: preliminary measurements
Method: (§1) A second appropriate method of measuring KD is to measure the inhibitor activity against the enzyme. […] For the proteins of this invention, having KD in the range 5 nM to 50 pM, nanograms to micrograms of inhibitor suffice. When using this method, the competition between the inhibitor and the enzyme substrate can give a measured Ki that is higher than the true Ki. Measurement reported here are not so corrected because the correction would be very small and the any correction would reduce the Ki. Here, we use the measured Ki as a direct measure of KD.
The three isolates KKII/3#6, KK2/#11, and KK2/#13 were recloned into a yeast expression vector. The yeast expression vector is derived from pMFalpha8 (KURJ82 and MIYA85). The LACI variant genes were fused to part of the matα 1 gene, generating a hybrid gene consisting of the matα 1 promoter-signal peptide and leader sequence-fused to the LACI variant. Note that the correctly processed LACI-K1 variant protein should be as detailed in Table 2 with the addition of residues glu-ala-ala-glu (SEQ ID NO: 70) to the N-terminal met (residue 1 in Table 2). Expression in S. cerevisiae gave acceptable yield typical of this system.

human plasma Kallikrein = target: T1, human plasma Kallikrein (Homo sapiens, UniProt P03952); experiment: Binding of display-phage to kallikrein-agarose beads (Table 8); conditions: for Relative Binding: fraction bound relative to the parental display-phage, LACI-K1; for Fraction Bound: pfu's eluted as a fraction of the input number (10^10 pfu's)
T1 construct: Hydrolysis of the Arg371 -Ile372 peptide bond yields a two-chain proteinase joined by a disulfide bond; purchased Calbiochem 420302
Method: This method is highly sensitive because the genetic packages can be amplified. We obtain at least semiquantitative values for the binding constants by use of a pH step gradient. […] Any other suitable method of measuring protein binding may be used.
The overall scheme for selecting a LACI-K1 variant to bind to a given protease involves incubation of the phage-display library with the kallikrein-beads of interest in a buffered solution (PBS containing 1 mg/ml BSA) followed by washing away the unbound and poorly retained display-phage variant with PBS containing 0.1% Tween 20. Kallikrein beads were made by coupling human plasma Kallikrein (Calbiochem, San Diego, Calif., # 420302) to agarose beads using Reactigel (6x) (Pierce, Rockford, II, #202606). The more strongly bound display-phage are eluted with a low pH elution buffer, typically citrate buffer (pH 2.0) containing 1 mg/ml BSA, which is immediately neutralized with Tris buffer to pH 7.5. This process constitutes a single round of selection.

plasmin = plasmin (Homo sapiens, UniProt P00747); experiment: Inhibition of plasmin (Ki); assay type: biochemical
Method: as §1

[1] = about 840 mg, 80 open-heart surgery patients, FRAE89; cited from earlier work
[2] = not corrected for substrate competition, read-out: Ki for plasma kallikrein (pKA)
[3] = stated as 'probably less than', read-out: Ki for plasma kallikrein (pKA), probable bound

T1 sequence (P03952 391-638 limits assumed): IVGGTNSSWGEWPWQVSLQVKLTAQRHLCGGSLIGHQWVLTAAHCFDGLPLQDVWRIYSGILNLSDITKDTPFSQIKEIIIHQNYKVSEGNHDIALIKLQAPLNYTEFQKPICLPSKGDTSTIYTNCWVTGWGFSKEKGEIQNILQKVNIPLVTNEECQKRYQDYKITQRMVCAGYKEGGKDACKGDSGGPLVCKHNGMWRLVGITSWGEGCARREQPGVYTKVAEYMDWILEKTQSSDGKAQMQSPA
T1 sequence (P03952 20-390 partner limits assumed): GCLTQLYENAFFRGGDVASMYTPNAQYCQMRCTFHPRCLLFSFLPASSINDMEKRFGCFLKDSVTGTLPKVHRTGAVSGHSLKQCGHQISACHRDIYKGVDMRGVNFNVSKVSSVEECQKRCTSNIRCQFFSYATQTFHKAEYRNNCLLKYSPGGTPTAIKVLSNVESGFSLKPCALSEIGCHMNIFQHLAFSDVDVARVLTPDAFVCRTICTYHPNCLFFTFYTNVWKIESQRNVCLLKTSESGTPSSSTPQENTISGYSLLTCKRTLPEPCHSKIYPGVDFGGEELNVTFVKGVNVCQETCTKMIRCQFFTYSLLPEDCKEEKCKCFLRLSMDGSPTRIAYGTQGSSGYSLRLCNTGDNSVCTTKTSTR
plasma kallikrein (pKA), sequence (P03952 391-638 limits assumed): as the sequence (P03952 391-638 limits assumed) above
plasma kallikrein (pKA), sequence (P03952 20-390 partner limits assumed): as the sequence (P03952 20-390 partner limits assumed) above
plasmin, sequence (P00747 581-810 limits assumed): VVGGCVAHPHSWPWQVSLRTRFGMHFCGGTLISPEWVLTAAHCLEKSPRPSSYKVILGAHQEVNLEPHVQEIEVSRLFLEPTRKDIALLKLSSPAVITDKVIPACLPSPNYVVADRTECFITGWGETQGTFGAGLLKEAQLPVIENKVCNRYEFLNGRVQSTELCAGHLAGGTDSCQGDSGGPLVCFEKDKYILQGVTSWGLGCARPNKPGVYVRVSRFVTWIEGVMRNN
plasmin, sequence (P00747 97-580 partner limits assumed): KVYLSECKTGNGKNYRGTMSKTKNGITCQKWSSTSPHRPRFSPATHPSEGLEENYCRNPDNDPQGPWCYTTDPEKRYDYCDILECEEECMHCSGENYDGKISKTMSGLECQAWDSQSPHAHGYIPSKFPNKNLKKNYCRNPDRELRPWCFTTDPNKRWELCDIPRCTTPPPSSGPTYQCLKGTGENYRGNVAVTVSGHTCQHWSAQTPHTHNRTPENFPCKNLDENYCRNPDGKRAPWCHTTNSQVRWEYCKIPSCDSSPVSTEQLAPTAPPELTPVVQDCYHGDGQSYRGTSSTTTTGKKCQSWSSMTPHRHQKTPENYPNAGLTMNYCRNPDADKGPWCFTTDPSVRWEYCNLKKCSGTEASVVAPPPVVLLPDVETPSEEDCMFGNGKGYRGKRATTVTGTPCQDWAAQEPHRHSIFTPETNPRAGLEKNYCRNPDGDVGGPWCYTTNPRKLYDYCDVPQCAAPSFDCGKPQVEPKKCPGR

Substance	Ki (plasma kallikrein (pKA); [2])	Ki (plasma kallikrein (pKA); [3])	Relative Binding (human plasma Kallikrein)	Fraction Bound (human plasma Kallikrein)	also measured
KK2/#13: second-library LACI-K1 variant Kunitz domain, SEQ ID NO. 19 (MHSFCAFKADGGRCRGAHPRWFFNIFTRQCEEFSYGGCGGNQNRFESLEECKKMCTRD)	< 0.3 nM	< 0.1 nM	–	–	–
KKI/3(a): LACI-K1 variant Kunitz domain, phase I selectant, SEQ ID NO. 15 (MHSFCAFKADDGRCKGAHLRFFFNIFTRQCEEFIYGGCEGNQNRFESLEECKKMCTRD)	–	–	761	3.2 × 10^-3	–
KKII/3#5: LACI-K1 variant Kunitz domain, SEQ ID NO. 9 (MHSFCAFKADDGHCKASLPRFFFNIFTRQCEEFIYGGCGGNQNRFESLEECKKMCTRD)	–	–	928	3.9 × 10^-3	–
bovine pancreatic trypsin inhibitor [BPTI]	–	–	–	2.5 × 10^-5	decrease of mean amount transfused [1]: 74%

Second part, led by results:

Ki (plasma kallikrein (pKA); [2])	Ki (plasma kallikrein (pKA); [3])	Relative Binding (human plasma Kallikrein)	Fraction Bound (human plasma Kallikrein)	Substance	also measured
< 0.3 nM	< 0.1 nM	–	–	KK2/#11: second-library LACI-K1 variant Kunitz domain, SEQ ID NO. 22 (MHSFCAFKADDGPCRAAHPRWFFNIFTRQCEEFSYGGCGGNQNRFESLEECKKMCTRD)	–
–	–	524	2.2 × 10^-3	KKI/3(b): LACI-K1 variant Kunitz domain, phase I selectant, SEQ ID NO. 16 (MHSFCAFKADDGPCKAIHLRFFFNIFTRQCEEFIYGGCEGNQNRFESLEECKKMCTRD)	–
~0.3 nM	< 0.5 nM	2071	8.7 × 10^-3	KKII/3#6: lead pKA inhibitor, LACI-K1 variant Kunitz domain, SEQ ID NO. 10 (MHSFCAFKADDGHCKANHQRFFFNIFTRQCEEFSYGGCGGNQNRFESLEECKKMCTRD)	Ki (plasmin): 10000 nM; Ki for kallikrein relative to wild-type LACI and BPTI (times) (plasma kallikrein (pKA); versus both wild-type LACI and BPTI): over 100 times
–	–	–	4.2 × 10^-6	LACI-K1: first Kunitz domain of human LACI (residues 50 to 107), parental molecule, SEQ ID NO. 3 (MHSFCAFKADDGPCKAIMKRFFFNIFTRQCEEFIYGGCEGNQNRFESLEECKKMCTRD) [reference compound]	–
